The numbers were not newly measured in PMC7448383, which cites them from elsewhere.

pKd: −log10 of the molar value.

The data set concerns the target GST (Schistosoma japonicum) [GST: P08515].

Chain of GST (P08515 2-218): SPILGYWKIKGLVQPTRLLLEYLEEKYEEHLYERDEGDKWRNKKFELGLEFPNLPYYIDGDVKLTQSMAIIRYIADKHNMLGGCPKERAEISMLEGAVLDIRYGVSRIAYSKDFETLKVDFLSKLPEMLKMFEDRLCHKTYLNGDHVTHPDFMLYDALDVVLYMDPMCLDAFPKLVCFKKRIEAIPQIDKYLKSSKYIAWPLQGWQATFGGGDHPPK

As to GST (from UniProt P08515), the pKd was 6.47.

Broadly, the pKd is the Kd on a negative log10 scale, so that one unit is a factor of ten.
